Data published in patent US20200283539A1.

Biological target: CD33 on HL60 leukemia cells (human) (UniProt P20138)
Test: cell-based or functional assay

Chain of CD33 on HL60 leukemia cells (human) (P20138 18-364 limits assumed): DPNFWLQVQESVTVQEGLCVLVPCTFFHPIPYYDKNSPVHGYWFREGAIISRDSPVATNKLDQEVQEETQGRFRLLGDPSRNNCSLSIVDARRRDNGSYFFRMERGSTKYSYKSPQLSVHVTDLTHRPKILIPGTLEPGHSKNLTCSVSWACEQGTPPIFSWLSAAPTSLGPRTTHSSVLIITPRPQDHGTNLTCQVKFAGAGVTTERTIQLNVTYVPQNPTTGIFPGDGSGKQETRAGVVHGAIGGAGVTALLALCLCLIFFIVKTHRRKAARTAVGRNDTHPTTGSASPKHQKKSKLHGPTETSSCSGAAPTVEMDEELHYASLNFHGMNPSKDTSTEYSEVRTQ

Substance: Lintuzumab conjugated with Actinium-225 (antibody)
- LD50 (dose at which 50% of the cells were killed), HL60 cell suspension: 8 pCi/mL
